Measurements taken from patent publication US20250092135A1 (NANJING LEADS BIOLABS, published 2025).

T1: rhesus monkey MUC16 protein (ECT_TM RhMuc16) on 293T cells (rhesus monkey)
T1 chain: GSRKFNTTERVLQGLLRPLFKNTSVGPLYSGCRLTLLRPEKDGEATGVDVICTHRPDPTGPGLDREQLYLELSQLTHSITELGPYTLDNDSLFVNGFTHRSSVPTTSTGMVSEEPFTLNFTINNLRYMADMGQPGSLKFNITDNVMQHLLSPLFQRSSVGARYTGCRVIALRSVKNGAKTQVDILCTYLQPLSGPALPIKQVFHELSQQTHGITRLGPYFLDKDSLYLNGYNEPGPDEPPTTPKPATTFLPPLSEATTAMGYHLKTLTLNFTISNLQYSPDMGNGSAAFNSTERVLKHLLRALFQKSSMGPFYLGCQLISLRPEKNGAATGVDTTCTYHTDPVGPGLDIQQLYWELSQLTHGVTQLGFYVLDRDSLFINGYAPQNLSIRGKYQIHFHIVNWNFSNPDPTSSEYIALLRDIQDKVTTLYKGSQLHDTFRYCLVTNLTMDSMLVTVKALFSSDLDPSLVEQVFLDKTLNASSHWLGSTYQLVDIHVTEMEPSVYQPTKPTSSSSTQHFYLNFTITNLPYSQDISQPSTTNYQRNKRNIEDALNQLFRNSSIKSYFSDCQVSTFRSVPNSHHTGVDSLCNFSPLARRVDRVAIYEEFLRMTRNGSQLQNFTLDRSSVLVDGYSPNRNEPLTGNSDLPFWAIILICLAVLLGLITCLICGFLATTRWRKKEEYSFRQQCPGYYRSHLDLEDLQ


Tests used:
[1] = molecular target: T2, human MUC16 protein endogenously expressed on cells (human, UniProt Q8WXI7 1-14507); assay: flow cytometry, OVCAR3 cells (endogenous human MUC16), PE anti-human IgG Fc secondary, MFI; EC50 table under the plot, unit from the axis Conc.(nM)
T2 construct: whole, on cells; also called MUC16 on OVCAR3 cells; MUC16 in ovarian carcinoma tissue
Description: (1) Whether the anti-CD3/anti-MUC16 bispecific antibodies in the present invention could bind to the MUC16 protein endogenously expressed on human ovarian carcinoma cells (OVCAR3) (Cell Bank of Type Culture Collection Committee of the Chinese Academy of Sciences, Cat #TCHu228) was determined by cell binding experiments.
The experiments were performed using flow cytometry. OVCAR3 cells were digested, centrifuged and collected. The cells were resuspended in a PBS solution, and seeded into a 96-well plate (Corning, Cat #3799) at 1×10⁵ cells/well. The 96-well plate was centrifuged and then the supernatant was discarded. 100 μL of the serially diluted test bispecific antibody (at a maximum concentration of 200 nM, 5-fold dilution from 100 nM, 9 concentration points in total) was added to the OVCAR3 cells. The plate was incubated at 4° C. for 30 min and centrifuged (1000 rpm, 5 min), and then the supernatant was discarded. 100 μL of PBS solution was added to each well, and the cells were washed twice. 100 μL of fluorescent secondary antibody R-PE-conjugated AffiniPure Goat Anti-Human IgG, Fcγ Fragment Specific (Jackson ImmunoResearch, Cat #109-116-098) diluted in a ratio of 1:200 was then added. The cells were incubated at 4° C. for 30 min. After the cells were washed twice with the PBS solution, 100 μL of PBS solution was added to each well to resuspend the cells, and finally, fluorescence signals were detected using a BD Accuri C5 (BD Bioscience) flow cytometer according to the manufacturer's instructions. REGN4018 was used as a positive control.

[2] = molecular target: T3, human CD3 protein endogenously expressed on Jurkat cells (human, UniProt P07766 23-207); assay: flow cytometry, Jurkat cells (endogenous CD3), PE anti-human IgG Fc secondary, MFI; EC50 table under the plot, unit from the axis Conc.(nM)
T3 construct: whole, on cells; The whole CD3 complex is on the cells; also called CD3 on Jurkat cells; CD3 on Jurkat/NFAT-luc cells
T3 sequence (P07766 23-207): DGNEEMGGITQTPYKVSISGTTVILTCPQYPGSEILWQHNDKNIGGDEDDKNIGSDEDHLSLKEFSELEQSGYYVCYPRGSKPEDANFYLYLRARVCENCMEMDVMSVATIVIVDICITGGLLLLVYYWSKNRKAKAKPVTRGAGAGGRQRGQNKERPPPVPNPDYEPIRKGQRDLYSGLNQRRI
Description: (§1) (3) Whether the anti-CD3/anti-MUC16 bispecific antibodies in the present invention could bind to the CD3 protein endogenously expressed on Jurkat cells (Cell Bank of Type Culture Collection Committee of the Chinese Academy of Sciences, Cat #SCSP-513) was determined by cell binding experiments. Detection was performed using the flow cytometry described above, with the following differences: the dilution gradient for the test bispecific antibody was: a maximum concentration of 200 nM, starting from a second concentration of 100 nM, 5-fold dilution, 10 points; the bispecific antibodies were added to Jurkat cells, and the cells were incubated at 4° C. for 30 min. The cells were washed twice with PBS, and then fluorescent secondary antibody R-PE-conjugated AffiniPure Goat Anti-Human IgG, Fcγ Fragment Specific was added. The cells were incubated at 4° C. for 30 min. The cells were washed twice with PBS and then resuspended, and finally, fluorescence signals were detected using a BD Accuri C5 (BD Bioscience) flow cytometer.

[3] = molecular target: T1, rhesus monkey MUC16 protein (ECT_TM …); assay: flow cytometry, 293T/rhesus MUC16 cells as printed on the sheet and in the legend (the example, paragraph 611, speaks of cynomolgus MUC16), PE anti-human IgG Fc secondary, MFI; EC50 table under the plot, unit from the axis Conc.(nM); curve still rising at the top concentration of 100 nM
Description: (§2) Referring to the flow cytometry described above, the serially diluted test bispecific antibody (at an initial concentration of 100 nM, 5-fold dilution, 9 points) was added to the cells, and the plate was incubated at 4° C. for 30 min. The cells were washed twice with PBS, and then fluorescent secondary antibody R-PE-conjugated AffiniPure Goat Anti-Human IgG, Fcγ Fragment Specific was added. The cells were incubated at 4° C. for 30 min. The cells were washed twice with PBS and then resuspended, and finally, fluorescence signals were detected using a BD Accuri C5 (BD Bioscience) flow cytometer.

[4] = molecular target: T3, human CD3 protein endogenously …; assay: flow cytometry, Jurkat cells (endogenous CD3), PE anti-human IgG Fc secondary, MFI; EC50 table under the plot, unit from the axis Conc.(nM); curve still rising at the top concentration
Description: as §1

[5] = molecular target: T1, rhesus monkey MUC16 protein (ECT_TM …); assay: flow cytometry, 293T/rhesus MUC16 cells as printed on the sheet and in the legend (the example, paragraph 611, speaks of cynomolgus MUC16), PE anti-human IgG Fc secondary, MFI; EC50 table under the plot, unit from the axis Conc.(nM); curve still rising at the top concentration of 100 nM, the value lies beyond the range shown
Description: as §2

Binder	EC50 [1]	EC50 [2]	EC50 [3]	EC50 [4]	EC50 [5]
anti-CD3/MUC16 bispecific antibody 2MCH7-23L2 (bispecific antibody, human IgG1, kappa, L234A L235A, 2MCH7-KIH-Knob (VH-CH1-VH-CH1-Fc) + 23L2ScFv-Hole + two light chains MCL4 LC) heavy 1: not shown heavy 2: EVQLVESGGGLVQPGGSLKLSCAASGFTFSTYAMNWVRQAPGKGLEWVGRIRSKYNNYATYYADSVKDRFTISRDDSKNTLYLQMNSLKTEDTAVYYCTRHGNFGNSYVSWFAYWGQGTTVTVSSGGGGSGGGGSGGGGSQAVVTQEPSLTVSPGGTVTLTCRSSTGAVTTSNYANWVQQKPGQAPRGLIGGTNKRAPGVPARFSGSLLGGKAALTLSGAQPEDEAEYFCALWYSNLWVFGGGTKLTVLGEPKSSDKTHTCPPCPAPEAAGGPSVFLFPPKPKDTLMISRTPEVTCVVVAVSHEDPEVKFNWYVDGVEVHNAKTKPREEQYNSTYRVVSVLTVLHQDWLNGKEYKCKVSNKALAAPIEKTISKAKGQPREPQVCTLPPSRDELTKNQVSLSCAVKGFYPSDIAVEWESNGQPENNYKTTPPVLDSDGSFFLVSKLTVDKSRWQQGNVFSCSVMHEALHNHYTQKSLSLSPGK light: EIVLTQSPATLSLSPGERATLSCRASSSVIYMSWYQQKPGQAPRLLIYGTSTLASGIPARFSGSGSGTDFTLTISSLEPEDFAVYYCQQWSSNPFTFGQGTKLEIKRTVAAPSVFIFPPSDEQLKSGTASVVCLLNNFYPREAKVQWKVDNALQSGNSQESVTEQDSKDSTYSLSSTLTLSKADYEKHKVYACEVTHQGLSSPVTKSFNRGEC	2.78 nM	14 nM	48.4 nM		
anti-CD3/MUC16 bispecific antibody MCH7-23L2 (bispecific antibody, human IgG1, kappa, L234A L235A, 23L2ScFv-Hole + MCH7-KIH-Knob + one light chain MCL4 LC) heavy 1: EVQLVESGGGLVQPGGSLKLSCAASGFTFSTYAMNWVRQAPGKGLEWVGRIRSKYNNYATYYADSVKDRFTISRDDSKNTLYLQMNSLKTEDTAVYYCTRHGNFGNSYVSWFAYWGQGTTVTVSSGGGGSGGGGSGGGGSQAVVTQEPSLTVSPGGTVTLTCRSSTGAVTTSNYANWVQQKPGQAPRGLIGGTNKRAPGVPARFSGSLLGGKAALTLSGAQPEDEAEYFCALWYSNLWVFGGGTKLTVLGEPKSSDKTHTCPPCPAPEAAGGPSVFLFPPKPKDTLMISRTPEVTCVVVAVSHEDPEVKFNWYVDGVEVHNAKTKPREEQYNSTYRVVSVLTVLHQDWLNGKEYKCKVSNKALAAPIEKTISKAKGQPREPQVCTLPPSRDELTKNQVSLSCAVKGFYPSDIAVEWESNGQPENNYKTTPPVLDSDGSFFLVSKLTVDKSRWQQGNVFSCSVMHEALHNHYTQKSLSLSPGK heavy 2: not shown light: EIVLTQSPATLSLSPGERATLSCRASSSVIYMSWYQQKPGQAPRLLIYGTSTLASGIPARFSGSGSGTDFTLTISSLEPEDFAVYYCQQWSSNPFTFGQGTKLEIKRTVAAPSVFIFPPSDEQLKSGTASVVCLLNNFYPREAKVQWKVDNALQSGNSQESVTEQDSKDSTYSLSSTLTLSKADYEKHKVYACEVTHQGLSSPVTKSFNRGEC	17.2 nM			70.7 nM	182 nM
